Assay results from patent US20160361384A1, “COSMETIC USE OF DERMICIDIN, OR ANALOGUES OR FRAGMENTS THEREOF, FOR THE PREVENTION AND/OR TREATMENT AND DIAGNOSIS OF OILY SKIN AND AESTHETIC SKIN DISORDERS ASSOCIATED THEREWITH” (L'OREAL, priority 2013, published 2016).
Ends that are not written are not given here.

B1: Recombinant human S100A7: recombinant human S100A7, Interchim (Protera), folding verified by NMR, batch EN00510-23/24/25 (protein, UniProt P31151 2-101, looked up)
Protein S100-A7: SNTQAERSIIGMIDMFHKYTRRDDKIEKPSLLTMMKENFPNFLSACDKKGTNYLADVFEKKDKNEDKKIDFSEFLSLLGDIATDYHKQSHGAAPCSGGSQ
B2: Lacritin: antimicrobial peptide Lacritin, synthesized by hybrogenics Ref: Hgx 2238v1 (peptide, UniProt Q9GZZ8 20-138, looked up)
Extracellular glycoprotein …: EDASSDSTGADPAQEAGTSKPNEEISGPAEPASPPETTTTAQETSAAAVQGTAKVTSSRQELNPLKSIVEKSILLTEQALAKAGKGMHGGVPGGKQFIENGSEFAQKLLKKFSLLKPWA
B3: RNASE 7: antimicrobial peptide RNASE 7, Human Plv extraction (heel horn) (protein, UniProt Q9H1E1 29-156, looked up)
Ribonuclease 7: KPKGMTSSQWFKIQHMQPSPQACNSAMKNINKHTKRCKDLNTFLHEPFSSVAATCQTPKIACKNGDKNCHQSHGAVSLTMCKLTSGKHPNCRYKEKRQNKSYVVACKPPQKKDSQQFHLVPVHLDRVL

System: P. acnes ATCC 6919
Assay type: cell-based, Propionibacterium acnes
Settings: for MIC in μg/ml P. acnes: P. acnes ATCC 6919, 48 h incubation, optical density at 620 nm, concentration range 5 to 100 μg/ml, triplicate
Protocol: A micromethod was developed in a microplate.
The test principle is based on bringing decreasing concentrations of antimicrobial peptide (DCD-1L) into contact with an identical inoculum of P. acnes in a culture medium conducive to the growth of P. acnes. After incubation of the microplate for 48 h with the P. acnes strain, the optical density of the sample (620 nm) is measured and the results are expressed as percentage growth calculated relative to a growth control without antimicrobial peptide (negative control).
In addition, the inoculum is also brought into contact with triclosan in order to have a positive control.
The minimum inhibitory concentration or MIC is the lowest concentration of antibiotic that is sufficient to inhibit, in the laboratory, i.e. in vitro, the growth of a bacterial strain (bacterial colony).
The concentration range chosen ranged from 5 to 100 μg/ml.
Each concentration was tested in triplicate.
The inhibitory activity of the peptides was evaluated on the following microorganism: • P. acnes ATCC 6919 (Gram+bacterium)

| Molecule | MIC in μg/ml P. acnes | growth of P. acnes (in the presence of a low concentration of the peptide) |
| --- | --- | --- |
| SSLLEKGLDGAKKAVGGLGKLGKDAVEDLESVGKGAVHDVKDVLDSVL [Dermcidin (DCD1L)] | <5 µg/mL | greatly inhibited |
| B1 | >100 µg/mL | – |
| B2 | 100 µg/mL | – |
| B3 | >100 µg/mL | – |
